B1: FLAG-tagged EIF4G2 WT [human] / PRRC2C [human (endogenous in HEK293T)] (parent complex)
chain 1: MESAIAEGGASRFSASSGGGGSRGAPQHYPKTAGNSEFLGKTPGQNAQKWIPARSTRRDDNSAANNSANEKERHDAIFRKVRGILNKLTPEKFDKLCLELLNVGVESKLILKGVILLIVDKALEEPKYSSLYAQLCLRLAEDAPNFDGPAAEGQPGQKQSTTFRRLLISKLQDEFENRTRNVDVYDKRENPLLPEEEEQRAIAKIKMLGNIKFIGELGKLDLIHESILHKCIKTLLEKKKRVQLKDMGEDLECLCQIMRTVGPRLDHERAKSLMDQYFARMCSLMLSKELPARIRFLLQDTVELREHHWVPRKAFLDNGPKTINQIRQDAVKDLGVFIPAPMAQGMRSDFFLEGPFMPPRMKMDRDPLGGLADMFGQMPGSGIGTGPGVIQDRFSPTMGRHRSNQLFNGHGGHIMPPTQSQFGEMGGKFMKSQGLSQLYHNQSQGLLSQLQGQSKDMPPRFSKKGQLNADEISLRPAQSFLMNKNQVPKLQPQITMIPPSAQPPRTQTPPLGQTPQLGLKTNPPLIQEKPAKTSKKPPPSKEELLKLTETVVTEYLNSGNANEAVNGVREMRAPKHFLPEMLSKVIILSLDRSDEDKEKASSLISLLKQEGIATSDNFMQAFLNVLDQCPKLEVDIPLVKSYLAQFAARAIISELVSISELAQPLESGTHFPLFLLCLQQLAKLQDREWLTELFQQSKVNMQKMLPEIDQNKDRMLEILEGKGLSFLFPLLKLEKELLKQIKLDPSPQTIYKWIKDNISPKLHVDKGFVNILMTSFLQYISSEVNPPSDETDSSSAPSKEQLEQEKQLLLSFKPVMQKFLHDHVDLQVSALYALQVHCYNSNFPKGMLLRFFVHFYDMEIIEEEAFLAWKEDITQEFPGKGKALFQVNQWLTWLETAEEEESEEEAD
chain 2: MSEKSGQSTKAKDGKKYATLSLFNTYKGKSLETQKTTARHGLQSLGKVGISRRMPPPANLPSLKAENKGNDPNVNIVPKDGTGWASKQEQHEEEKTPEVPPAQPKPGVAAPPEVAPAPKSWASNKQGGQGDGIQVNSQFQQEFPSLQAAGDQEKKEKETNDDNYGPGPSLRPPNVACWRDGGKAAGSPSSSDQDEKLPGQDESTAGTSEQNDILKVVEKRIACGPPQAKLNGQQAALASQYRAMMPPYMFQQYPRMTYPPLHGPMRFPPSLSETNKGLRGRGPPPSWASEPERPSILSASELKELDKFDNLDAEADEGWAGAQMEVDYTEQLNFSDDDEQGSNSPKENNSEDQGSKASENNENKKETDEVSNTKSSSQIPAQPSVAKVPYGKGPSFNQERGTSSHLPPPPKLLAQQHPPPDRQAVPGRPGPFPSKQQVADEDEIWKQRRRQQSEISAAVERARKRREEEERRMEEQRKAACAEKLKRLDEKLGILEKQPSPEEIREREREKEREREKELEKEQEQEREKEREKDRERQQEKEKELEKEQEKQREMEKERKQEKEKELERQKEKEKELQKMKEQEKECELEKEREKLEEKIEPREPNLEPMVEKQESENSCNKEEEPVFTRQDSNRSEKEATPVVHETEPESGSQPRPAVLSGYFKQFQKSLPPRFQRQQEQMKQQQWQQQQQQGVLPQTVPSQPSSSTVPPPPHRPLYQPMQPHPQHLASMGFDPRWLMMQSYMDPRMMSGRPAMDIPPIHPGMIPPKPLMRRDQMEGSPNSSESFEHIARSARDHAISLSEPRMLWGSDPYPHAEPQQATTPKATEEPEDVRSEAALDQEQITAAYSVEHNQLEAHPKADFIRESSEAQVQKFLSRSVEDVRPHHTDANNQSACFEAPDQKTLSAPQEERISAVESQPSRKRSVSHGSNHTQKPDEQRSEPSAGIPKVTSRCIDSKEPIERPEEKPKKEGFIRSSEGPKPEKVYKSKSETRWGPRPSSNRREEVNDRPVRRSGPIKKPVLRDMKEEREQRKEKEGEKAEKVTEKVVVKPEKTEKKDLPPPPPPPQPPAPIQPQSVPPPIQPEAEKFPSTETATLAQKPSQDTEKPLEPVSTVQVEPAVKTVNQQTMAAPVVKEEKQPEKVISKDLVIERPRPDSRPAVKKESTLPPRTYWKEARERDWFPDQGYRGRGRGEYYSRGRSYRGSYGGRGRGGRGHTRDYPQYRDNKPRAEHIPSGPLRQREESETRSESSDFEVVPKRRRQRGSETDTDSEIHESASDKDSLSKGKLPKREERPENKKPVKPHSSFKPDNHVRIDNRLLEKPYVRDDDKAKPGFLPKGEPTRRGRGGTFRRGGRDPGGRPSRPSTLRRPAYRDNQWNPRQSEVPKPEDGEPPRRHEQFIPIAADKRPPKFERKFDPARERPRRQRPTRPPRQDKPPRFRRLREREAASKSNEVVAVPTNGTVNNVAQEPVNTLGDISGNKTPDLSNQNSSDQANEEWETASESSDFNERRERDEKKNADLNAQTVVKVGENVLPPKREIAKRSFSSQRPVDRQNRRGNNGPPKSGRNFSGPRNERRSGPPSKSGKRGPFDDQPAGTTGVDLINGSSAHHQEGVPNGTGQKNSKDSTGKKREDPKPGPKKPKEKVDALSQFDLNNYASVVIIDDHPEVTVIEDPQSNLNDDGFTEVVSKKQQKRLQDEERRKKEEQVIQVWNKKNANEKGRSQTSKLPPRFAKKQATGIQQAQSSASVPPLASAPLPPSTSASVPASTSAPLPATLTPVPASTSAPVPASTLAPVLASTSAPVPASPLAPVSASASVSASVPASTSAAAITSSSAPASAPAPTPILASVSTPASVTILASASIPILASALASTSAPTPAPAASSPAAPVITAPTIPASAPTASVPLAPASASAPAPAPTPVSAPNPAPPAPAQTQAQTHKPVQNPLQTTSQSSKQPPPSIRLPSAQTPNGTDYVASGKSIQTPQSHGTLTAELWDNKVAPPAVLNDISKKLGPISPPQPPSVSAWNKPLTSFGSAPSSEGAKNGQESGLEIGTDTIQFGAPASNGNENEVVPVLSEKSADKIPEPKEQRQKQPRAGPIKAQKLPDLSPVENKEHKPGPIGKERSLKNRKVKDAQQVEPEGQEKPSPATVRSTDPVTTKETKAVSEMSTEIGTMISVSSAEYGTNAKESVTDYTTPSSSLPNTVATNNTKMEDTLVNNVPLPNTLPLPKRETIQQSSSLTSVPPTTFSLTFKMESARKAWENSPNVREKGSPVTSTAPPIATGVSSSASGPSTANYNSFSSASMPQIPVASVTPTASLSGAGTYTTSSLSTKSTTTSDPPNICKVKPQQLQTSSLPSASHFSQLSCMPSLIAQQQQNPQVYVSQSAAAQIPAFYMDTSHLFNTQHARLAPPSLAQQQGFQPGLSQPTSVQQIPIPIYAPLQGQHQAQLSLGAGPAVSQAQELFSSSLQPYRSQPAFMQSSLSQPSVVLSGTAIHNFPTVQHQELAKAQSGLAFQQTSNTQPIPILYEHQLGQASGLGGSQLIDTHLLQARANLTQASNLYSGQVQQPGQTNFYNTAQSPSALQQVTVPLPASQLSLPNFGSTGQPLIALPQTLQPPLQHTTPQAQAQSLSRPAQVSQPFRGLIPAGTQHSMIATTGKMSEMELKAFGSGIDIKPGTPPIAGRSTTPTSSPFRATSTSPNSQSSKMNSIVYQKQFQSAPATVRMTQPFPTQFAPQILSQPNLVPPLVRAPHTNTFPAPVQRPPMALASQMPPPLTTGLMSHARLPHVARGPCGSLSGVRGNQAQAALKAEQDMKAKQRAEVLQSTQRFFSEQQQSKQIGGGKAQKVDSDSSKPPETLTDPPGVCQEKVEEKPPPAPSIATKPVRTGPIKPQAIKTEETKS
B2: FLAG-tagged EIF4G2 WT [human] / EIF4A2 [human (endogenous in HEK293T)] (parent complex)
chain 1: B1 chain 1
chain 2: MSGGSADYNREHGGPEGMDPDGVIESNWNEIVDNFDDMNLKESLLRGIYAYGFEKPSAIQQRAIIPCIKGYDVIAQAQSGTGKTATFAISILQQLEIEFKETQALVLAPTRELAQQIQKVILALGDYMGATCHACIGGTNVRNEMQKLQAEAPHIVVGTPGRVFDMLNRRYLSPKWIKMFVLDEADEMLSRGFKDQIYEIFQKLNTSIQVVLLSATMPTDVLEVTKKFMRDPIRILVKKEELTLEGIKQFYINVEREEWKLDTLCDLYETLTITQAVIFLNTRRKVDWLTEKMHARDFTVSALHGDMDQKERDVIMREFRSGSSRVLITTDLLARGIDVQQVSLVINYDLPTNRENYIHRIGRGGRFGRKGVAINFVTEEDKRILRDIETFYNTTVEEMPMNVADLI
B3: FLAG-tagged EIF4G2 WT [human] / HADHB [human (endogenous in HEK293T)] (parent complex)
chain 1: B1 chain 1
chain 2: AAPAVQTKTKKTLAKPNIRNVVVVDGVRTPFLLSGTSYKDLMPHDLARAALTGLLHRTSVPKEVVDYIIFGTVIQEVKTSNVAREAALGAGFSDKTPAHTVTMACISANQAMTTGVGLIASGQCDVIVAGGVELMSDVPIRHSRKMRKLMLDLNKAKSMGQRLSLISKFRFNFLAPELPAVSEFSTSETMGHSADRLAAAFAVSRLEQDEYALRSHSLAKKAQDEGLLSDVVPFKVPGKDTVTKDNGIRPSSLEQMAKLKPAFIKPYGTVTAANSSFLTDGASAMLIMAEEKALAMGYKPKAYLRDFMYVSQDPKDQLLLGPTYATPKVLEKAGLTMNDIDAFEFHEAFSGQILANFKAMDSDWFAENYMGRKTKVGLPPLEKFNNWGGSLSLGHPFGATGCRLVMAAANRLRKEGGQYGLVAACAAGGQGHAMIVEAYPK

In the first assay the parent is B1. Nature of the assay: co-immunoprecipitation followed by mass spectrometry; FLAG-tagged EIF4G2 transfected into HEK293T cells; corrected for EIF4G2 levels in IP; read off a plot.
With chain 1 N785K, the ratio to parent was about 1.6. For the variant chain 1 R165C, the ratio to parent is about 2.4.

Another assay covers variants of B2. The description is as above.
Consider chain 1 R178Q, for which the ratio to parent was about 5.6.

The variants in the next assay derive from B3. The description is as above.
For chain 1 R178Q, the ratio to parent was about 4.9.

These data come from paper PMC10746786 (2023).
